Assay [1] deals with T1, human HER2-Fc (human, UniProt P04626 23-652).
T1 construct: Bought from R&D Systems: homodimeric fusion of the HER2 extracellular domain and human IgG1 Fc; also called human ErbB2-Fc; rhErbB2-Fc; not shown: Fc fragment of human IgG1
The assay can be described thus: ELISA on coated huHER2-Fc, HRP anti-human kappa; the number is C of the printed 4-P fit y=(A-D)/(1+(x/C)^B)+D (A -0.004, B 0.92, D 0.931, R^2 1); x axis: Fab equivalent concentration; last point about 13000 ng/ml at OD about 0.73, upper plateau not reached by the points. A general note: ELISA stands for enzyme-linked immunosorbent assay.

Assay [2] concerns the target T2, human HER2/ErbB2 on cells (human, UniProt P04626 23-1255).
T2 construct: whole, on cells; also called hHER2/ErbB2; wild type HER2/ErbB
The assay can be described thus: flow cytometry on CHO cells expressing human HER2. As for the experimental part:
CHO cells (Chinese Hamster Ovary cells) stably transfected with hHER2 expression vector and selected in G418 containing medium. G418 resistant clones were pooled and split 24 hours prior to the setup of the assay to obtain 70% confluent monolayer. Routinely, CHO cell line was maintained within 20 passages. Cells were lifted with cell dissociation buffer (Gibco catalog #13151-014), counted, washed and adjusted to 1×10⁶ cells/ml and one ml of cells were then added to each tube (12×75 mm tube Falcon catalog #352054). Cells were pelleted and supernatant removed by centrifugation at 1200 rpm for 5 min and 100 μl of diluted antibodies were then added to the cell pellet. Purified Fabs were tested at a starting concentration of either 210 or 60 μg/ml with 1:3 dilutions in FACS buffer, down to 0.001 μg/ml. FACS buffer used throughout the assay was PBS (without Ca^{+±}/Mg^{+±}) containing 1% BSA (Sigma catalog #A-7906) and 0.1% Sodium Azide (Sigma catalog #S2002). Samples were allowed to incubate on ice for 1 hour and 15 minutes then were washed with 2 ml FACS buffer and centrifuged at 1200 rpm for 5 minutes at 4° C. The supernatant was aspirated and 100 μl of the secondary detection antibody was added to each corresponding tube in FACS buffer. Samples were then incubated for 30 minutes on ice, in the dark. Cells were washed as described above, then, re-suspended in 250 μl FACS buffer per tube/sample.
A full titration was performed on MCF7 and SKBR3 tumor cell lines, and human Her2-CHO and murine Her2-CHO cell lines in order to calculate an approximate EC50 (data not shown, see summary in Table 1).
Background: In flow cytometry, cells or beads pass a laser one at a time.

Assay [3] has as its target T3, murine HER2-Fc (mouse; human, UniProt P70424 23-653).
T3 construct: extracellular domain; Bought from R&D Systems; also called murine ErbB2-Fc; not shown: Fc fragment of human IgG1
Put plainly: ELISA on coated muHER2-Fc, HRP anti-human kappa; the number is C of the printed 4-P fit y=(A-D)/(1+(x/C)^B)+D (A 0.002, B 0.792, D 0.827, R^2 0.999); x axis: Fab equivalent concentration; C lies beyond the last point (about 14000 ng/ml, OD about 0.28): extrapolated by the fit.

Assay [4] has as its target T4, Her2-Fc D1-D2-D3-D4 (MR069).
T4 construct: made in house, kept apart from the R&D Systems HER2-Fc; also called ErbB2-Fc full length ECD
The assay can be described thus: ELISA, HER2-Fc construct captured by anti-huFc, Fab from 1 ug/ml in 5-fold steps, HRP anti-kappa/lambda. As for the experimental part:
(§1) Nunc Maxisorp ELISA plates were coated with 5 ug/ml rabbit pAbs anti-human Fc gamma in PBS overnight at 4 degrees. Plates were washed one time with PBST (PBS, 0.05% tween 20) and blocked with 1% BSA in PBS for one hour at room temperature. Plates were washed one time with PBST and incubated with 1 ug/ml HER2-Fc fusion protein for one hour. Plates were washed three times with PBST and dilutions of Fab (four 5-fold serial dilutions, starting at 1 ug/ml) in block were added and incubated for ninety minutes. Plates were washed three times with PBST and incubated with 1:2,000 HRP-labelled goat anti-human kappa (Southern Biotech cat#2060-05) and HRP-labelled goat anti-human lambda (Southern Biotech cat#2070-05) in block for one hour at room temperature. Plates were washed three times with PBST, developed with TMB solution for 5 minutes, and stopped with equal volume 1 N H₂SO₄. Absorbance values were read at 450 nm.

A further assay has as its target T5, Her2-Fc D1-D2 (MR067).
T5 construct: also called ErbB2-Fc Domains 1-2
T5 chain: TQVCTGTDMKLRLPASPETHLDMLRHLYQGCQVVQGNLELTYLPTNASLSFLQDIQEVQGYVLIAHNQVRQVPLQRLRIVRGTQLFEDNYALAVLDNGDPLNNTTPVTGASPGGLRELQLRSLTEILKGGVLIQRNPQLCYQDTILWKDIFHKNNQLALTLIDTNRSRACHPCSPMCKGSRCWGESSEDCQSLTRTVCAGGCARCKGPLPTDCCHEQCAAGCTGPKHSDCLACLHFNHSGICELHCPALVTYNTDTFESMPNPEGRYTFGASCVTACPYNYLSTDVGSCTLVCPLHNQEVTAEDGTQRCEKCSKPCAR
The description is as above. How it is done:
as §1

For another assay, the target named is T6, Her2-Fc D1-D2-D3 (MR068).
T6 construct: also called ErbB2-Fc Domains 1-3
The description is as above. As for the experimental part: as §1

The target in a further assay is T7, Her2-Fc D1 (MR066).
T7 construct: also called ErbB2-Fc Domain 1
T7 chain: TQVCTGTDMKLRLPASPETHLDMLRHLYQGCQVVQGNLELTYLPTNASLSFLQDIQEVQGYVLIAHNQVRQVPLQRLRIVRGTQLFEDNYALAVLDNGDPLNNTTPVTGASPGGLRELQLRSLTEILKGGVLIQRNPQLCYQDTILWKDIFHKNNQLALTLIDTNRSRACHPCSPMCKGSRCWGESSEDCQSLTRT
Described as above. As for the experimental part:
as §1

A further assay has as its target T8, EGFR on MDA-MB-468 cells (UniProt P00533 25-1210, limits assumed).
T8 construct: whole, on cells; also called MDA-MB-468 tumor cell line (EGFR+, HER2-)
Put plainly: FACS on MDA-MB-468 cells (EGFR+, HER2-).

Assay [5] deals with T3, murine HER2-Fc. The assay can be described thus: ELISA on coated muHER2-Fc, HRP anti-human kappa; the number is C of the printed 4-P fit (A -0.002, B 0.6, D 1.035, R^2 1); x axis: Fab equivalent concentration; C lies beyond the last point (about 120 ng/ml, OD about 0.4): extrapolated by the fit.
For assay [6], the target named is T2, human HER2/ErbB2 on cells. Put plainly: FACS on HER2-expressing cells.
Assay [7] concerns the target T1, human HER2-Fc. The assay can be described thus: ELISA on coated HER2-Fc. How it is done:
Human and murine ErbB2-Fc were obtained from R&D Systems. Wells of 96-well plates were coated with 2 ug/ml or 0.2 ug/ml of human or murine HER2-Fc by incubation overnight at 4-8° C. with either of these six proteins (80 ul/well of a 0.2 or 2 ug/ml solution in PBS). Wells were emptied, filled completely with a solution of PBS with 1% BSA (blocking buffer) and incubated at room temperature for 1 hour. Wells were emptied, washed twice PBS containing 0.05% Tween 20 (PBST) and filled with the samples (80 ul/well of 3× dilution series of the standard and supernatants in blocking buffer) prepared in another 96-well plate. After a 2-hour incubation at room temperature, the wells were emptied, washed three times with PBST and filled with a solution of HRP-conjugated goat pAbs anti-human kappa chain (80 ul/well of a 2000-fold dilution in blocking buffer). After 1-hour incubation, the wells were emptied and filled with a solution of HRP substrate prepared freshly. The color was left to develop for 3 minutes and was stopped by addition of an equal volume of 1N H₂SO₄. Absorbance was measured at 450 nm using a Plate Reader (SpectraMax, Molecular Devices). The data was processed and graphs were created using SoftMax Pro software.

Assay [8] has as its target T1, human HER2-Fc. The assay can be described thus: ELISA on coated huHER2-Fc, HRP anti-human kappa; the number is C of the printed 4-P fit (A 0.008, B 1.216, D 0.834, R^2 1); x axis: Fab equivalent concentration.

B1: BIIB71F10 Fab (Fab, V domains shown)
VH: EVQLLESGGGLVQPGGSLRLSCAASGFTFSSYGMVWVRQAPGKGLEWVSSISSSGGLTWYADSVKGRFTISRDNSKNTLYLQMNSLRAEDTAVYYCASPPGIAVARDYWGQGTLVTVSS
VL: DIQMTQSPSSLSASVGDRVTITCRASQGISNYLAWYQQKPGKVPKLLIYAASTLQSGVPSRFSGSGSGTDFTLTISSLQPEDVATYYCQKYNSALLTFGGGTKVEIK
notes: Soluble human Fab; also called Fab 71F10
In the case of B1, the concentration for a half-maximal effect (EC50) with human HER2-Fc [1] was 3.43 µg/mL; in assay [2], 60 nM; with murine HER2-Fc [3], 31.8 µg/mL. The binding result is recorded as “binds” in assay [4]; “binds” with Her2-Fc D1-D2 (MR067); “binds” with Her2-Fc D1-D2-D3 (MR068); “no binding (tested: 1 ug/ml)” with Her2-Fc D1 (MR066); “no binding” in the assay with EGFR on MDA-MB-468 cells.

B2: BIIB71F10 Mab (BIIB71F10-134, 71F10 IgG) (antibody, V domains shown)
VH: EVQLLESGGGLVQPGGSLRLSCAASGFTFSSYGMVWVRQAPGKGLEWVSSISSSGGLTWYADSVKGRFTISRDNSKNTLYLQMNSLRAEDTAVYYCASPPGIAVARDYWGQGTLVTVSS
VL: DIQMTQSPSSLSASVGDRVTITCRASQGISNYLAWYQQKPGKVPKLLIYAASTLQSGVPSRFSGSGSGTDFTLTISSLQPEDVATYYCQKYNSALLTFGGGTKVEIKR
notes: IgG1; also called BIIB71-F10 antibody
For B2, the EC50 is 0.248 µg/mL in the assay with murine HER2-Fc [5], 2 nM in [6], 0.07 nM with human HER2-Fc [7] and 0.00634 µg/mL with human HER2-Fc [8].

A word on the EC50: it is the concentration giving half of the maximal effect.

(Values after patent US20130101549A1 (Biogen, published 2013).)
